Measured values from paper PMC7256013, “Preclinical evaluation of cationic DOTA-triarginine-lipid conjugates for theranostic liquid brachytherapy” (Nanotheranostics, 2020).
Residues, ends and D or L forms follow the SMILES beside them. *: point of attachment. DOTA = O=C(O)CN1CCN(CC(=O)O)CCN(CC(=O)*)CCN(CC(=O)O)CC1; Stearoyl = CCCCCCCCCCCCCCCCCC(=O)*

Tests used:
in vivo [1] = conditions: female, Balb/C, mouse, total radioactivity
Description: CT26 wildtype cells (murine colon carcinoma, ATCC, Virginia, US) were cultured RPMI (Roswell Park Memorial Institute) medium supplemented with 10 % heat-inactivated Fetal Calf Serum (FCS) and 1 % Penicillin-Streptomycin (Invitrogen, Carlsbad, CA., US) retained in 5 % CO2 incubator at 37 °C. Immunocompetent female Balb/C mice (Charles River, Wilmington, MA., USA) were inoculated with tumor cells after one week of adaptation. All 20 mice included were inoculated subcutaneously with 3 x 10^5 CT26 wildtype cells in 100 µL medium on the right flank and hereafter monitored for weight and tumor size continuously for study purposes and to monitor the health of the mice. Tumor sizes were calculated from the formula of 0.52 x lenght^2 x width, as measured by external caliper. Animals were included in the study when tumors were approximately 400 mm^3.
(§1) Mice were injected intratumorally with ^64Cu-compounds in concentrations of 40 MBq/mL. During the scan procedures, mice were anaesthetized using 3-4 % sevoflurane (Abbott Scandinavia AB, Sweden) mixed with 35% O2 and 65% medical grade air and placed on heating pads. Two mice were positioned side-by-side, separated by a 6 mm polystyrene block for PET/CT imaging using Inveon® small animal PET/CT system with CT based PET image attenuation (Siemens Medical Systems, Malvern, PA, USA). The protocol included a 12-minute PET scan, followed by a CT scan. Mice were fixed on a bed inside the scanner with the syringe placed and the needle fixed centrally in the tumor and ready for injection. Upon initiation of the first scan, intratumoral injections were done manually over 30 seconds, to investigate the initial dynamics of the tracer diffusion. Following this, two further scans were included; at six hours (5 minutes scan time) and 24 hours (12 minutes scan time) after injection. Reconstruction of the PET scans were performed using maximum a posteriori (MAP) reconstruction algorithm (voxel size: 0.815 x 0.815 x 0.796 mm; resolution (FWHM) 1.2 mm). The injection scan was reconstructed in 4 x 30 second and 10 x 60 second time frames to observe the dynamics of tracer diffusion. The two last time points were reconstructed in a single time frame.
(§2) Image analysis was performed using commercially available Inveon software (Siemens Medical Systems, Malvern, PA, USA). Regions of interest (ROIs) were manually drawn based on the co-registered PET/CT images. The following ROIs were constructed; tumors (complete volume delineated), liver, spleen, kidney, bladder, and blood. Blood activity was estimated from a constructed ROI covering the left ventricular lumen of the heart. ROIs in the left ventricle and abdominal aorta were subsequently segmented to only include the voxels displaying above 80% of maximum activity with the original ROI. From the obtained uptake values all data was calculated into %ID/g for each organ and as %ID in tumors by adjusting for CT based tumor volume. Furthermore, voxel values from tumor ROIs were used to generate histograms for substance diffusion over time in the tumor region.

[2] = mouse, in vivo
Description: as §1, §2
(§3) Note that the first point in each plot represents the percentage of voxels with radioactivity concentrations lower than 1.6 %ID/g. These voxels are considered empty, meaning that the corresponding tumor region is non-radioactive.

in vivo [3] = conditions: female, Balb/C, mouse, total radioactivity; remark: listed apart in the source
Description: as §1, §2, §3

SMILES: CCCCCCCCCCCCCCCCCC(=O)N[C@@H](CCCNC(=N)N)C(=O)N[C@@H](CCCNC(=N)N)C(=O)N[C@@H](CCCNC(=N)N)C(=O)N[C@@H](CCCCNC(=O)CN1CCN(CC(=O)O)CCN(CC(=O)O)CCN(CC(=O)O)CC1)C(N)=O [64Cu-D3R-C18, metal not drawn] (Stearoyl-RRRK(DOTA)-NH2)
- tissue uptake at 15 s (in vivo [1]): 80 ± 66 %ID/g
- tissue uptake at 45 s (in vivo [1]): 171 ± 96 %ID/g
- tissue uptake at 75 s (in vivo [1]): 230 ± 58 %ID/g
- tissue uptake at 105 s (in vivo [1]): 241 ± 63 %ID/g
- tissue uptake at 2.5 min (in vivo [1]): 241 ± 66 %ID/g
- tissue uptake at 3.5 min (in vivo [1]): 240 ± 68 %ID/g
- tissue uptake at 0.075 h (in vivo [1]): 241 ± 69 %ID/g
- tissue uptake at 5.5 min (in vivo [1]): 240 ± 70 %ID/g
- tissue uptake at 6.5 min (in vivo [1]): 240 ± 70 %ID/g
- tissue uptake at 0.125 h (in vivo [1]): 240 ± 70 %ID/g
- tissue uptake at 8.5 min (in vivo [1]): 239 ± 69 %ID/g
- tissue uptake at 9.5 min (in vivo [1]): 238 ± 70 %ID/g
- tissue uptake at 0.175 h (in vivo [1]): 238 ± 70 %ID/g
- tissue uptake at 11.5 min (in vivo [1]): 236 ± 70 %ID/g
- tissue uptake at 6 h (in vivo [1]): 49 ± 17 %ID/g
- tissue uptake at 24 h (in vivo [1]): 23 ± 7 %ID/g
- tissue uptake dose at 0.2 h (in vivo [1]): 85 ± 11 %ID
- range of voxel radioactivities in tumor [2]: 0-500 %ID/g
- tissue uptake at 5 min (in vivo [3]): < 10 %ID/g
